The text below walks through data of article PMC3591345, “A Novel Single-Strand Specific 3′–5′ Exonuclease Found in the Hyperthermophilic Archaeon, Pyrococcus furiosus”.

The target in series [1] is PfuExo I (recombinant protein encoded by PF2046) (Pyrococcus furiosus) (UniProt Q8TZE9). Description: SEC; analytical gel filtration, SMART system, Superdex 200 3.2/30; 20 µM PfuExo I; 50 mM Tris-HCl pH 8.0, 0.5 mM DTT, 0.1 mM EDTA, 10% glycerol, 0.15 M NaCl; mass estimated against marker proteins.
The target of another series is T1, PfuExo I (Pyrococcus furiosus, UniProt Q8TZE9 1-229).
T1 sequence: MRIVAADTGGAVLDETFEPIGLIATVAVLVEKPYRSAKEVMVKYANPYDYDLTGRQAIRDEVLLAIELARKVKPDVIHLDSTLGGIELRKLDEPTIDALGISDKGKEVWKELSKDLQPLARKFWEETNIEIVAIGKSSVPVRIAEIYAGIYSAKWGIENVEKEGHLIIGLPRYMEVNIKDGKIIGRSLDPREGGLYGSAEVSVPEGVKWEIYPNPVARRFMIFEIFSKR
Description: EMSA; no Mg2+, 0.1 mM EDTA; 1-1000 nM protein; 0.1% glutaraldehyde fixation; one shifted band; 20 mM triethanolamine (pH not stated), 50 mM NaCl, 0.1 mg/ml BSA, 0.1 mM EDTA, 2.5 nM DNA, 20 min at 37 C, then 0.1% glutaraldehyde; 4.5% native PAGE. The following applies: protein: recombinant, chain copies: 3, label: 32P (5'). On the technique in general: Mobility shift assays separate free from complexed probe on a gel.

With “PfuExo I (recombinant protein encoded by PF2046) (from UniProt Q8TZE9 1-229) (enzyme)”, the stoichiometry N in series [1] is 3.

B1: 5'-overhang DNA d49F/d27 (dsDNA)
DNA 1: AGCTACCATGCCTGCACGAATTAAGCAATTCGTAATCATGGTCATAGCT
DNA 2: AGCTATGACCATGATTACGAATTGCTT
On to B1, for which the binding result with PfuExo I (5' overhang 22 nt) is on record as “binds”.

B2: 3'-overhang DNA d49F/d22 (dsDNA)
DNA 1: AGCTACCATGCCTGCACGAATTAAGCAATTCGTAATCATGGTCATAGCT
DNA 2: AATTCGTGCAGGCATGGTAGCT
In the case of B2, in the series with PfuExo I (3' overhang 27 nt), the binding result was “binds”.

Broadly, the stoichiometry N is the number of molecules, sites or subunits per partner or assembly.
